We go through seven molecules from PMC6719327 (Applied Microbiology and Biotechnology, 2019).

Holding throughout (conditions): one partner purified
Assay [1] concerns the target T1, endothelin A receptor (ETaR) (Homo sapiens (assumed), UniProt P25101).
T1 construct: endothelin A receptor (ETaR), a GPCR; plasmid and cells were gifts from Gmax Biopharm LLC; also called GPCR; ETaR-expressing CHO cells; source: CHO cells stably expressing and displaying ETaR (provided by Gmax Biopharm LLC); on cells, and in vesicles prepared from them
Kind of assay: flow cytometry on cells; competition of unlabelled full-length antibodies, obtained similarly as for scFv; L = 13 nM; Ki = IC50/(1 + L/Kd).

Assay [2] addresses T1, endothelin A receptor (ETaR). Briefly: flow cytometry on cells; purified full-length antibodies titrated on ETaR-expressing CHO cells as for scFv; PE-conjugated anti-IgG; Kd from the dose-response curve.
The target of the next assay is T2, ETaR-GFP (UniProt P25101).
T2 construct: endothelin A receptor (ETaR) with GFP fused to its C-terminus (in cytosol); also called ETaR cells; ETaR-GFP cells; source: CHO cells stably expressing ETaR-GFP (provided by Gmax Biopharm LLC; clone S-33 for vesicles); on cells, and in vesicles prepared from them; not shown: GFP, C-terminal, kept
T2 sequence (P25101 21-427): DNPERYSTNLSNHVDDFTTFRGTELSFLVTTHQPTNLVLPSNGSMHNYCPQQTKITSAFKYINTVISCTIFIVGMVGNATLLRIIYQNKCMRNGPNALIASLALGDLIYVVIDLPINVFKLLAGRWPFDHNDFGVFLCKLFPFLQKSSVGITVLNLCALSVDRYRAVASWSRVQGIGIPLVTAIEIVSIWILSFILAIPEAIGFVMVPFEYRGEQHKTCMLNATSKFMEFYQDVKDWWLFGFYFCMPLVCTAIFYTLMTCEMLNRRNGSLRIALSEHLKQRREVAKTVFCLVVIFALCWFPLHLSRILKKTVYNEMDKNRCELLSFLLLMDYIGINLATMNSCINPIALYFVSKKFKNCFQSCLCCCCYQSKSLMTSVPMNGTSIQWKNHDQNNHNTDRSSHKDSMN
Kind of assay: flow cytometry on cells; cells expressing ETaR-GFP incubated with purified scFv-His for 30 min, then anti-his-PE antibody (Fig. 4b).

For assay [3], the target named is T1, endothelin A receptor (ETaR). Briefly: flow cytometry on cells; purified scFv-His at 1 to 316 nM on ETaR-expressing CHO cells, 1 h at 4 °C; FITC-conjugated anti-His; Kd from the dose-response curve (GraphPad PRISM 5.0).
Assay [4] has the same target. Briefly: flow cytometry on cells; competition: unlabelled scFv at 0.01 to 316 nM against FITC-labeled wild-type anti-GPCR at L = 150 nM on ETaR-expressing CHO cells, 1 h at 4 °C; Ki = IC50/(1 + L/Kd).
Assay [5] has the same target. Briefly: flow cytometry on cells; Ki of purified scFv-Fc on ETaR-expressing cells; tracer and L not told for this format.

T1 sequence (P25101 21-427): as above

B1: anti-GPCR (ETaR) antibody 80H4, full-length, mutant S115N-S30R-D73H (antibody, V domains shown)
VH: EVQLLESGGGLVQPGGSLRLSCAASGFTFRSYGMSWVRQAPGKGLEWVSAISTNGATAYYADSVKGRFTISRHNSKNTLYLQMNSLRAEDTAVYYCATEKGAMGYWGQGTLVTVNS
VL: DIVMTQTPLSLSVTPGQPASISCRSSQNIVHSTGNTYLEWYLQKPGQSPQLLIYKVSNRFSGVPDRFSGSGSGTDFTLKISRVEAEDVGVYYCFQGSHFPFTFGQGTKVEIK
notes: heavy-chain variable region as the heavy chain of m13; heavy-chain constant region as in m13; light-chain variable region as the light chain of m13; light-chain constant region as in m13; also called S115N-D73H-S30R; source: Expi293F, heavy and light chains co-expressed, purified from supernatant (Protein A); copies: 2 + 2
On to B1, for which, in assay [1], the IC50 was found to be 16 nM and the inhibition constant (Ki) amounted to 6.2 nM. In assay [2], the dissociation constant Kd came out at 8.27 nM.

B2: anti-GPCR (ETaR) antibody 80H4, full-length, mutant D73H (antibody, V domains shown)
VH: EVQLLESGGGLVQPGGSLRLSCAASGFTFSSYGMSWVRQAPGKGLEWVSAISTNGATAYYADSVKGRFTISRHNSKNTLYLQMNSLRAEDTAVYYCATEKGAMGYWGQGTLVTVSS
VL: DIVMTQTPLSLSVTPGQPASISCRSSQNIVHSTGNTYLEWYLQKPGQSPQLLIYKVSNRFSGVPDRFSGSGSGTDFTLKISRVEAEDVGVYYCFQGSHFPFTFGQGTKVEIK
notes: heavy-chain variable region as the heavy chain of m13; heavy-chain constant region as in m13; light-chain variable region as the light chain of m13; light-chain constant region as in m13; source: Expi293F, heavy and light chains co-expressed, purified from supernatant (Protein A); copies: 2 + 2
On to B2, for which, in assay [1], the IC50 worked out at 30.6 nM and the Ki was 15.7 nM. Also, in assay [2], the equilibrium dissociation constant (Kd) turned out to be 13.6 nM.

B3: anti-GPCR (ETaR) antibody 80H4, scFv-His, mutant T113A-R38Q (scFv, V domains shown)
VH: EVQLLESGGGLVQPGGSLRLSCAASGFTFSSYGMSWVQQAPGKGLEWVSAISTNGATAYYADSVKGRFTISRDNSKNTLYLQMNSLRAEDTAVYYCATEKGAMGYWGQGTLVAVSS
VL: DIVMTQTPLSLSVTPGQPASISCRSSQNIVHSTGNTYLEWYLQKPGQSPQLLIYKVSNRFSGVPDRFSGSGSGTDFTLKISRVEAEDVGVYYCFQGSHFPFTFGQGTKVEIK
notes: heavy-chain variable region as in m3; (G4S)3 linker; light-chain variable region as in m3; also called T113A-R38Q scFv-His; source: Expi293F, transfected, purified from supernatant (Ni-NTA); not shown: His tag, C-terminal, kept
In the case of B3, in the assay with ETaR-GFP, the binding result is recorded as “binds”.

B4: anti-GPCR (ETaR) antibody 80H4, scFv-His, mutant N28Y (scFv, V domains shown)
VH: EVQLLESGGGLVQPGGSLRLSCAASGFTFSSYGMSWVRQAPGKGLEWVSAISTNGATAYYADSVKGRFTISRDNSKNTLYLQMNSLRAEDTAVYYCATEKGAMGYWGQGTLVTVSS
VL: DIVMTQTPLSLSVTPGQPASISCRSSQYIVHSTGNTYLEWYLQKPGQSPQLLIYKVSNRFSGVPDRFSGSGSGTDFTLKISRVEAEDVGVYYCFQGSHFPFTFGQGTKVEIK
notes: heavy-chain variable region as in m3; (G4S)3 linker; light-chain variable region as in m3; source: Expi293F, transfected, purified from supernatant (Ni-NTA); not shown: His tag, C-terminal, kept
For B4, in assay [3], binding was characterised by a dissociation constant (Kd) of 83.5 nM. For the same molecule, in assay [4], the half-maximal inhibitory concentration (IC50) was 210 nM and the inhibition constant Ki was determined as 75.1 nM.

B5: anti-GPCR (ETaR) antibody 80H4, scFv-His, mutant R38Q (scFv, V domains shown)
VH: EVQLLESGGGLVQPGGSLRLSCAASGFTFSSYGMSWVQQAPGKGLEWVSAISTNGATAYYADSVKGRFTISRDNSKNTLYLQMNSLRAEDTAVYYCATEKGAMGYWGQGTLVTVSS
VL: DIVMTQTPLSLSVTPGQPASISCRSSQNIVHSTGNTYLEWYLQKPGQSPQLLIYKVSNRFSGVPDRFSGSGSGTDFTLKISRVEAEDVGVYYCFQGSHFPFTFGQGTKVEIK
notes: as for B4
Take B5: the binding result with ETaR-GFP is “binds”.

B6: anti-GPCR (ETaR) antibody 80H4, scFv-Fc, mutant T113A-V64M-N28Y (Fc fusion)
VH: EVQLLESGGGLVQPGGSLRLSCAASGFTFSSYGMSWVRQAPGKGLEWVSAISTNGATAYYADSMKGRFTISRDNSKNTLYLQMNSLRAEDTAVYYCATEKGAMGYWGQGTLVAVSS
VL: DIVMTQTPLSLSVTPGQPASISCRSSQYIVHSTGNTYLEWYLQKPGQSPQLLIYKVSNRFSGVPDRFSGSGSGTDFTLKISRVEAEDVGVYYCFQGSHFPFTFGQGTKVEIK
notes: heavy-chain variable region as in m3; (G4S)3 linker; light-chain variable region as in m3; also called mutant scFv-Fc; source: Expi293F, transfected, purified from supernatant (Protein A); not shown: Fc, C-terminal, kept
In assay [5], B6 gave a Ki of 40.2 nM.

B7: anti-GPCR (ETaR) antibody 80H4, scFv-Fc, wild type (Fc fusion)
VH: EVQLLESGGGLVQPGGSLRLSCAASGFTFSSYGMSWVRQAPGKGLEWVSAISTNGATAYYADSVKGRFTISRDNSKNTLYLQMNSLRAEDTAVYYCATEKGAMGYWGQGTLVTVSS
VL: DIVMTQTPLSLSVTPGQPASISCRSSQNIVHSTGNTYLEWYLQKPGQSPQLLIYKVSNRFSGVPDRFSGSGSGTDFTLKISRVEAEDVGVYYCFQGSHFPFTFGQGTKVEIK
notes: heavy-chain variable region as in m3; (G4S)3 linker; light-chain variable region as in m3; also called wild-type scFv-Fc; anti-GPCR-scFv-Fc; source: Expi293F, transfected, purified from supernatant (Protein A); not shown: Fc, C-terminal, kept
As for B7, the affinity in assay [5] corresponds to a Ki of 251 nM.
